1 molecule from article PMC5016095 (2016) can be followed below.

By Kd is commonly meant a measure of binding affinity in units of concentration. Lower therefore signals tighter binding.

In experiment [1] the target is α-synuclein S129E (Homo sapiens, UniProt P37840). The experiment in a line: fluorescence spectroscopy.
Experiment [2] addresses α-synuclein (oligomeric) (Homo sapiens, UniProt P37840, oligomeric, pseudo-wildtype tryptophan mutant). The experiment in a line: fluorescence spectroscopy.

B1: TOM20 C-terminal cytosolic fragment (protein)
chain: DRKRRSDPNFKNRLRERRKKQKLAKERAGLSKLPDLKDAEAVQKFFLEEIQLGEELLAQGDYEKGVDHLTNAIAVCGQPQQLLQVLQQTLPPPVFQMLLTKLPTISQRIVSAQSLAEDDVE
For B1, the Kd in experiment [1] and in experiment [2] was roughly 5 µM each time.
